Article PMC7921410, “Structure of mammalian Mediator complex reveals Tail module architecture and interaction with a conserved core” (Nature Communications, 2021)

B2: MED28 (natural protein, mouse (Mus musculus; endogenous in CH12), UniProt Q920D3 1-178, looked up)
chain: MAASLGGMFTGQPPGPPPPPPGLPGQASLLQAAPGAPRPSNSTLVDELESSFEACFASLVSQDYVNGTDQEEIRTGVDQCIQKFLDIARQTECFFLQKRLQLSVQKPDQVIKEDVSELRSELQRKDALVQKHLTKLRHWQQVLEDINVQHKKPADMPQGSLAFLEQASANIPAPLKQT
notes: MED28, Mus musculus, endogenous upper Tail subunit of Mediator; source: endogenous, CH12 mouse B lymphoma nuclear extract; immunopurified as part of Mediator (FLAG M2 agarose, FLAG peptide elution)
B3: MED30 (natural protein, mouse (Mus musculus; endogenous in CH12), UniProt Q9CQI9 1-178, looked up)
chain: MSTPPLAPTGMASGPFGGPQAQQAAREVNTATLCRIGQETVQDIVYRTMEIFQLLRNMQLPNGVTYHTGTYQDRLTKLQDHLRQLSILFRKLRLVYDKCNENCGGMDPIPVEQLIPYVDEDGSKNDDRAGPPRFASEERREIVEVNKKLKQKNQQLKQIMDQLRNLIWDINAMLAMRN
notes: MED30, Mus musculus, endogenous upper Tail subunit of Mediator; source: endogenous, CH12 mouse B lymphoma nuclear extract; immunopurified as part of Mediator (FLAG M2 agarose, FLAG peptide elution)

Assays:
Assay in all cases: cryo-EM structure; endogenous mouse Mediator immunopurified from CH12 nuclear extract through 3×FLAG-MED19 or 3×FLAG-MED25; eluted in 50 mM HEPES pH 7.9, 100 mM KCl, 5% glycerol, 1 mM EDTA, 0.005% NP-40; map at 4.0 Å overall, focused refinement of the MED1 and knob/hook ends (6-10 Å)
Details in all cases: both partners purified
[1] = target: T1, MED20 (mouse (Mus musculus; endogenous in CH12), UniProt Q9R0X0 1-212)
T1 construct: MED20, Mus musculus, endogenous Head module subunit of Mediator; source: endogenous, CH12 mouse B lymphoma nuclear extract; immunopurified as part of Mediator (FLAG M2 agarose, FLAG peptide elution)
T1 sequence (looked up): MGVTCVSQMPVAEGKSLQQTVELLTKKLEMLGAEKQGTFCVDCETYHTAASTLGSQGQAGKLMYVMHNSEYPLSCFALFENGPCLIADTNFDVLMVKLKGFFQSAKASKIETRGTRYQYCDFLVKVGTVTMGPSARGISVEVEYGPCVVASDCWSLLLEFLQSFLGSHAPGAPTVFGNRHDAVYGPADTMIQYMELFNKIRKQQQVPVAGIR

[2] = target: T2, MED27 (mouse (Mus musculus; endogenous in CH12), UniProt Q9DB40 1-311)
T2 construct: MED27, Mus musculus, endogenous upper Tail subunit of Mediator; source: endogenous, CH12 mouse B lymphoma nuclear extract; immunopurified as part of Mediator (FLAG M2 agarose, FLAG peptide elution)
T2 sequence (looked up): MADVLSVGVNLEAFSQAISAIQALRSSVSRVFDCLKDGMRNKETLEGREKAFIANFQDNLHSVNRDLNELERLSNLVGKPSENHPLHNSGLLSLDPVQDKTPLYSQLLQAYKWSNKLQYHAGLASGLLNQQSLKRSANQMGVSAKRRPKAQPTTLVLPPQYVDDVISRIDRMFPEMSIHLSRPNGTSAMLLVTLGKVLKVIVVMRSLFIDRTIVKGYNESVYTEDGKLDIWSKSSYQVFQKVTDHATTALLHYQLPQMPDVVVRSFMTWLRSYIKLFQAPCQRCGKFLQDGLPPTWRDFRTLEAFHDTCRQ

[3] = target: T3, MED17 (mouse (Mus musculus; endogenous in CH12), UniProt Q8VCD5 1-649)
T3 construct: MED17, Mus musculus, endogenous Head module scaffold subunit of Mediator; source: endogenous, CH12 mouse B lymphoma nuclear extract; immunopurified as part of Mediator (FLAG M2 agarose, FLAG peptide elution)
T3 sequence (looked up): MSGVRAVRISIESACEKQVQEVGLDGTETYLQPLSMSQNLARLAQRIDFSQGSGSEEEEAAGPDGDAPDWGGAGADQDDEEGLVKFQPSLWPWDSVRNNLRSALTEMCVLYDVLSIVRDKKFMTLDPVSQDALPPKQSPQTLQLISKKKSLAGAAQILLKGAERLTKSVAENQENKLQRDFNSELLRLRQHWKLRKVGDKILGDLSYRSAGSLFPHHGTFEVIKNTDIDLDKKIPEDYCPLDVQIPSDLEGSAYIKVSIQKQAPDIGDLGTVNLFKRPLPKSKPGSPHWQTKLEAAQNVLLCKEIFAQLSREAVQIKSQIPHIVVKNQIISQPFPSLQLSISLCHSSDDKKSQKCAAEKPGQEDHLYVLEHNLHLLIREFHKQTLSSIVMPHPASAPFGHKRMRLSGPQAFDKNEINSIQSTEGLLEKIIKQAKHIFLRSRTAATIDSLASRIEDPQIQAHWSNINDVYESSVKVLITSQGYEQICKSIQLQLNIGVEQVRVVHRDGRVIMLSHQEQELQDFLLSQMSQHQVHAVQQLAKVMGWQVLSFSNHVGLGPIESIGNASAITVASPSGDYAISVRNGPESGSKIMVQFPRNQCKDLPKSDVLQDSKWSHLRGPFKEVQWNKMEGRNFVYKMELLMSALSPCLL

[4] = target: T4, MED22 (mouse (Mus musculus; endogenous in CH12), UniProt Q62276 1-200)
T4 construct: MED22, Mus musculus, endogenous Head module subunit of Mediator; source: endogenous, CH12 mouse B lymphoma nuclear extract; immunopurified as part of Mediator (FLAG M2 agarose, FLAG peptide elution)
T4 sequence (looked up): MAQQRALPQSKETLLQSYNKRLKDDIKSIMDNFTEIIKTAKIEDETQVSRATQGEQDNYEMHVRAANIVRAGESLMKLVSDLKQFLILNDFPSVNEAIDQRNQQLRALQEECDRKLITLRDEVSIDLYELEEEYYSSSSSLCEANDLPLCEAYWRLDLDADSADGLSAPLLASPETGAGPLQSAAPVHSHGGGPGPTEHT

[5] = target: T5, MED29 (mouse (Mus musculus; endogenous in CH12), UniProt Q9DB91 1-199)
T5 construct: MED29, Mus musculus, endogenous upper Tail subunit of Mediator; source: endogenous, CH12 mouse B lymphoma nuclear extract; immunopurified as part of Mediator (FLAG M2 agarose, FLAG peptide elution)
T5 sequence (looked up): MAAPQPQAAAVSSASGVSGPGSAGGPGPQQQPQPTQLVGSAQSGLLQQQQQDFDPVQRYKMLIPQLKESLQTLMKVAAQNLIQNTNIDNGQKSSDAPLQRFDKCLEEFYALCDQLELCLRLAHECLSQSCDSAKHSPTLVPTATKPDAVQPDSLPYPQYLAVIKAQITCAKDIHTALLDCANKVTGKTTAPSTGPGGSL

[6] = target: B3
[7] = target: B2
[8] = target: T6, MED1 (mouse (Mus musculus; endogenous in CH12), UniProt Q925J9 1-1575)
T6 construct: MED1, Mus musculus, endogenous Middle module subunit of Mediator; only a partial model of the folded N-terminal portion was built; Partial model only; this part of the map is at about 6-8 Å; also called Mediator subunit MED1; source: endogenous, CH12 mouse B lymphoma nuclear extract; immunopurified as part of Mediator (FLAG M2 agarose, FLAG peptide elution)

Measured: binding result

T6 sequence (Q925J9 whole entry): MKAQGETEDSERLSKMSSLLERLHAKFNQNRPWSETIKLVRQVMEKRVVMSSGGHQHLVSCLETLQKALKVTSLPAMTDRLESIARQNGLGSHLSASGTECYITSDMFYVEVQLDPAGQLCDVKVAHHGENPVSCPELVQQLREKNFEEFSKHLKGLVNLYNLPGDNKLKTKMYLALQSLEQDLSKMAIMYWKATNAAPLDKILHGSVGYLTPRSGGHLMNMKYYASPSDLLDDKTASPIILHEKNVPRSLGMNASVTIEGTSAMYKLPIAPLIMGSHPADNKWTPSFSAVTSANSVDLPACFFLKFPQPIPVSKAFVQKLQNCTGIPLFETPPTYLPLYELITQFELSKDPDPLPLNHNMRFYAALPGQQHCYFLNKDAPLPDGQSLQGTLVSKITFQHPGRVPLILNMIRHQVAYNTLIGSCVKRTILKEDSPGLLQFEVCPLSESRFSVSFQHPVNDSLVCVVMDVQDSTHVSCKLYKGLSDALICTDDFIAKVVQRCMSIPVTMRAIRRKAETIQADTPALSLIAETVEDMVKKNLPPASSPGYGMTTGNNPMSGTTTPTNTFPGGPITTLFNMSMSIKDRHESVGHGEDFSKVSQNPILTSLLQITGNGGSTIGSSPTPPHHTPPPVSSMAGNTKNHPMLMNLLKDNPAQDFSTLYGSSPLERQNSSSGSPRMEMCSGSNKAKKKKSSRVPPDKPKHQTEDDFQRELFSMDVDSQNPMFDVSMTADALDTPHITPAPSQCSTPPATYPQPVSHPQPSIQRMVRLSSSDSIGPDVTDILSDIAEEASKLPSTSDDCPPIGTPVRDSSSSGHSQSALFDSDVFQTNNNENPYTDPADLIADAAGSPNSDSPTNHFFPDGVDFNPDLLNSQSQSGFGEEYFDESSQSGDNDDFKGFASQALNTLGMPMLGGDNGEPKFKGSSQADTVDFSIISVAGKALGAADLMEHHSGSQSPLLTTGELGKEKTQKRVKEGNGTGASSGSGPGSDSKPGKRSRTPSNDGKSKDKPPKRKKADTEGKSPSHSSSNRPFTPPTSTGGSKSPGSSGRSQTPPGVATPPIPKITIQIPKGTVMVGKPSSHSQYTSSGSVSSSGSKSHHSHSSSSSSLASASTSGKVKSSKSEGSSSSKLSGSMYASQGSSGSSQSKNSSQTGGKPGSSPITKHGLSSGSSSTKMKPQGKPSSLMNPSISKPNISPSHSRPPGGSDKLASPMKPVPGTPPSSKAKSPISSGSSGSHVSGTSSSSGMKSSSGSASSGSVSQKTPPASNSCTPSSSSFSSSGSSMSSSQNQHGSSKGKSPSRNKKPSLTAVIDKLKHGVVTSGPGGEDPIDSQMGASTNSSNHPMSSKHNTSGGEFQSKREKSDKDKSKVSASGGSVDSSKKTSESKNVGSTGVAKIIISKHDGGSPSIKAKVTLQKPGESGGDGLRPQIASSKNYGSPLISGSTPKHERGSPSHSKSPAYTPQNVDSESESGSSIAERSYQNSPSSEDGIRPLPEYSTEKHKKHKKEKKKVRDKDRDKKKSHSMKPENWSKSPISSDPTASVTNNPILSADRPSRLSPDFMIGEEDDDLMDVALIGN

B1: MED18 (natural protein, mouse (Mus musculus; endogenous in CH12), UniProt Q9CZ82 1-208, looked up)
chain: MEAPPVTMMPVTGGTINMMEYLLQGSVLDHSLESLIHRLRGLCDNMEPETFLDHEMVFLLKGQQASPFVLRARRSMDRAGAPWHLRYLGQPEMGDKNRHALVRNCVDIATSENLTDFLMEMGFRMDHEFVAKGHLFRKGIMKVVVYKIFRILVPGNTDSTEALSLSYLVELSVVAPAGQDMVSDDMRNFAEQLKPLVHLEKIDPKRLM
notes: MED18, Mus musculus, endogenous Head module subunit of Mediator; source: endogenous, CH12 mouse B lymphoma nuclear extract; immunopurified as part of Mediator (FLAG M2 agarose, FLAG peptide elution)
binds: [1] | [2] | [3]

B2
binds: [4] | [2] | [5] | [6] | [3]

B3
binds: [4] | [2] | [5] | [3]

B4: MED11 (natural protein, mouse (Mus musculus; endogenous in CH12), UniProt Q9D8C6 1-117, looked up)
chain: MATYSLANERLRALEDIEREIGAILQNAGTAILELSKEKTNERLLDRQAAAFTTSVQHVEAELSAQIRYLTQVATGQPHEGSSYSSRKDCQMALKRVDYARLKISDVARTCEQMLEN
notes: MED11, Mus musculus, endogenous Head module subunit of Mediator; source: endogenous, CH12 mouse B lymphoma nuclear extract; immunopurified as part of Mediator (FLAG M2 agarose, FLAG peptide elution)
binds: [4] | [7] | [6] | [3]

B5: MED4 (natural protein, mouse (Mus musculus; endogenous in CH12), UniProt Q9CQA5 1-270, looked up)
chain: MAASSSGEKEKERMGGVSGMAGLGSTRERLLSALEDLEVLSRELIEMLAISRNQKLLQLEEENQVLELLIHRDGDFQELMKLALNQGKVHHEMQALEKEVEKRDSDIQQLQKQLKEAEQILATAVYQAKEKLKSIEKARKGAISSEEIIKYAHRISASNAVCAPLTWVPGDPRRPYPTDLEMRSGLLGQMNNPSTSGVNGHLPGDALAAGRLPDVLAPQYPWQSNDMSVNMLPPNHSSDFLLEPPGHNKENEDDVEVMSTDSSSSSSDSD
notes: MED4, Mus musculus, endogenous Middle module subunit of Mediator; source: endogenous, CH12 mouse B lymphoma nuclear extract; immunopurified as part of Mediator (FLAG M2 agarose, FLAG peptide elution)
binds: [8]
